# Measurements from patent publication US20120100152A1 (Sanofi, published 2012).
# Primed or numbered codes have the meaning given here. Ends that are not written are not given here. Biotin′ = not defined here
# T1: MUT 2 alanine-scanning mutant hCD52 peptide (human)
# T1 construct: Synthetic
# T1 peptide: GANDTSQTSSPSADC
# T2: MUT 6 alanine-scanning mutant hCD52 peptide (human)
# T2 construct: Synthetic
# T2 peptide: GQNDTAQTSSPSADC
# T3: MUT 3 alanine-scanning mutant hCD52 peptide (human)
# T3 construct: Synthetic
# T3 peptide: GQADTSQTSSPSADC
# T4: MUT 1 alanine-scanning mutant hCD52 peptide (human)
# T4 construct: Synthetic
# T4 peptide: AQNDTSQTSSPSADC
# T5: MUT 12 alanine-scanning mutant hCD52 peptide (human)
# T5 construct: Synthetic
# T5 peptide: GQNDTSQTSSPAADC
# T6: WT 1 wildtype human CD52 peptide (human, not fully specified (residue 15); printed as GQNDTSQTSSPSADK-Biotin)
# T6 construct: Synthetic
# T6 peptide: GQNDTSQTSSPSADK-{Biotin′}
# T7: MUT 10 alanine-scanning mutant hCD52 peptide (human)
# T7 construct: Synthetic
# T7 peptide: GQNDTSQTSAPSADC
# T8: MUT 5 alanine-scanning mutant hCD52 peptide (human)
# T8 construct: Synthetic
# T8 peptide: GQNDASQTSSPSADC
# T9: MUT 8 alanine-scanning mutant hCD52 peptide (human)
# T9 construct: Synthetic
# T9 peptide: GQNDTSQASSPSADC
# T10: MUT 9 alanine-scanning mutant hCD52 peptide (human)
# T10 construct: Synthetic
# T10 peptide: GQNDTSQTASPSADC
# T11: MUT 7 alanine-scanning mutant hCD52 peptide (human)
# T11 construct: Synthetic
# T11 peptide: GQNDTSATSSPSADC
# T12: human CD52 (wildtype) (human, not fully specified (residue 3); also: N-linked glycan, GPI anchor)
# T12 construct: also called huCD52; hCD52
# T12 chain: GQNDTSQTSSPS
# T13: MUT 4 alanine-scanning mutant hCD52 peptide (human)
# T13 construct: Synthetic
# T13 peptide: GQNATSQTSSPSADC
# Assays:
# [1] = biological target: T1, MUT 2 alanine-scanning mutant hCD52 …; experiment: Biacore T100 SPR, antibody immobilized, peptide injected at up to 500 nM;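 note: Amine-coupled antibody (10,000 RU), 25 °C in HBS-EP+ pH 7.4, 5 min association then 5 min dissociation, 1:1 fit with blank flow cell and 0 nM double-referencing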
# From the text: (§1) The carboxymethyl dextran surface was activated using a 1:1 mixture of 0.1M N-hydroxysuccinimide (NHS) and 0.4M N-ethyl-N′-(3-dimethylaminopropyl)carbodiimide hydrochloride (EDC), allowing the surface to bind reactive amine groups on the antibodies. […] Following antibody immobilization, the reactive sensor chip surface was quenched using 1M ethanolamine hydrochloride/NaOH pH 8.5. One flow cell on each chip was a blank reference surface, and subsequent flow cells were immobilized with 10,000 RU of antibody.
# (§2) Peptides were diluted into the assay running buffer, HBS-EP+ (10 mM HEPES, 150 mM NaCl, 0.05% P20 surfactant, 3 mM EDTA, pH 7.4). Duplicates of 100 nM samples were included. […] The T100 instrument sample chamber and assay temperatures were set to 4° C. and 25° C., respectively. The human CD52 peptide samples were injected for five minutes at a 50 μl/min flow rate to measure association, and washed in HBS-EP+ for five minutes at a 50 μl/min flow rate to measure dissociation. The antibody surface was stripped of any remaining bound peptide using a sixty second injection of 10 mM glycine-HCl pH 2.0 at a 50 μl/min flow rate. Analysis was performed using Biacore T100 Kinetics Evaluation software v2.0 (GE Healthcare). Data was fit to a 1:1 model with reference flow cell and 0 nM concentration subtraction (double-reference subtraction).
# [2] = biological target: T2, MUT 6 alanine-scanning mutant hCD52 …; experiment: as above
# From the text: as §1, §2
# [3] = biological target: T3, MUT 3 alanine-scanning mutant hCD52 …; experiment: as above
# From the text: as §1, §2
# [4] = biological target: T4, MUT 1 alanine-scanning mutant hCD52 …; experiment: as above
# From the text: as §1, §2
# [5] = biological target: T5, MUT 12 alanine-scanning mutant hCD52 …; experiment: as above
# From the text: as §1, §2
# [6] = biological target: T6, WT 1 wildtype human CD52 peptide; experiment: as above
# From the text: as §1, §2
# [7] = biological target: T7, MUT 10 alanine-scanning mutant hCD52 …; experiment: as above
# From the text: as §1, §2
# [8] = biological target: T8, MUT 5 alanine-scanning mutant hCD52 …; experiment: as above
# From the text: as §1, §2
# [9] = biological target: T9, MUT 8 alanine-scanning mutant hCD52 …; experiment: as above
# From the text: as §1, §2
# [10] = biological target: T10, MUT 9 alanine-scanning mutant hCD52 …; experiment: as above
# From the text: as §1, §2
# [11] = biological target: T11, MUT 7 alanine-scanning mutant hCD52 …; experiment: as above
# From the text: as §1, §2
# human CD52 (wildtype) [12] = biological target: T12, human CD52 (wildtype); experiment: flow cytometry, CHO-CD52 cells, 12-point titration
# Method: The EC50 values of selected anti-CD52 antibodies were estimated using CHO cells engineered to express CD52. CHO-CD52 cells were trypsinized in 0.25% trypsin, collected, and rinsed with PBS/5% FBS. Cells were then deposited into round-bottom 96 well plates at 1E5 cells per well. Primary antibody staining was done with a 12 point serial dilution (1:2) of each anti-CD52 chimeric antibody starting at 50 μg/mL. […] Cells were washed 3 times in ice-cold PBS/5% FBS before and after each incubation. Cells were fixed with PBS containing 2% methanol-free paraformaldehyde and evaluated by flow cytometry.
# human CD52 (wildtype) [13] = biological target: T12, human CD52 (wildtype); experiment: flow cytometry, huCD52 transgenic mouse CD4+ T cells, FITC goat F(ab)2 anti-human Fc gamma secondary, GraphPad Prism fit (Example 29)
# Method: (§3) The EC₅₀ values of chimeric and humanized anti-CD52 antibodies were estimated using CD4+ T cells isolated from healthy donor PBMCs obtained from commercial sources (Bioreclamation, NY, USA). CD4+ T cells were isolated by negative selection using an EasySep kit (Stem Cell Technologies). […] Briefly, human CD4+ T cells were isolated from 50 ml of peripheral blood from healthy volunteers (Bioreclamation), and huCD52 transgenic mouse CD4+ T cells were isolated from spleen tissue. Cells were rinsed with PBS/5% FBS and deposited into round-bottom 96 well plates at 1×10⁵ cells per well. Primary antibody staining was done with an 8 point serial dilution (1:3) of each anti-CD52 chimeric and humanized antibody starting at 100 μg/mL. […] Cells were washed 3 times in ice-cold PBS/5% FBS before and after each incubation. Cells were fixed with PBS containing 2% methanol-free paraformaldehyde and evaluated by flow cytometry. The flow cytometry data was analyzed using GraphPad Prism software to determine an EC₅₀ value with 95% confidence interval.
# human CD52 (wildtype) [14] = biological target: T12, human CD52 (wildtype); experiment: flow cytometry, human CD4+ T cells from PBMC, FITC goat F(ab)2 anti-human Fc gamma secondary, GraphPad Prism fit (Example 29)
# Method: as §3
# human CD52 (wildtype) [15] = biological target: T12, human CD52 (wildtype); experiment: flow cytometry, CHO-CD52 cells
# [16] = biological target: T13, MUT 4 alanine-scanning mutant hCD52 …; experiment: Biacore T100 SPR, antibody immobilized, peptide injected at up to 500 nM;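 note: Amine-coupled antibody (10,000 RU), 25 °C in HBS-EP+ pH 7.4, 5 min association then 5 min dissociation, 1:1 fit with blank flow cell and 0 nM double-referencing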
# From the text: as §1, §2
# human CD52 (wildtype) [17] = biological target: T12, human CD52 (wildtype); experiment: flow cytometry, CD4+ T cells, 8-point titration
# Method: as §3
# [18] = biological target: T10, MUT 9 alanine-scanning mutant hCD52 …; experiment: Biacore T100, antibody immobilised on a CM5 chip, peptide injected
# From the text: as §1, §2
binding result [1],binding result [2],binding result [3],binding result [4],binding result [5],binding result [6],binding result [7],binding result [8],EC50 (human CD52 (wildtype) [12]) [µg/mL],EC50 (human CD52 (wildtype) [13]) [nM],EC50 (human CD52 (wildtype) [14]) [nM],further results,Binder
binds,binds,binds,binds,binds,binds,binds,binds,–,–,–,binding result [9]: binds; binding result [10]: binds; binding result [11]: binds,"humanized antibody 9D9-H16/K13 (antibody, V domains shown) VH: EVQLLESGGGLVQPGGSLRLSCAASGFTFSDAWMDWVRQAPGKGLELVSEIRNKAKNHATYYAESVKGRFTISRDNSKNTLYLQMNSLRAEDTAVYYCTTLDSWGQGTTVTVSS VL: DIVMTQTPLSLSVTPGQPASISCKSSQSLLDSDGKTYLNWLLQKPGQSPQRLIYLVSALDSGVPDRFSGSGSGTDFTLKISRVEAEDVGVYYCWQGTHFPWTFGQGTKLEIKR"
–,–,–,–,–,–,–,–,1.36,25.1,21.9,–,"Campath-1H® (alemtuzumab) (antibody, IgG1, V domains shown, Humanized IgG1/kappa; also called C1H; C-1H; copies: 2 + 2) VH: QVQLQESGPGLVRPSQTLSLTCTVSGFTFTDFYMNWVRQPPGRGLEWIGFIRDKAKGYTTEYNPSVKGRVTMLVDTSKNQFSLRLSSVTAADTAVYYCAREGHTAAPFDYWGQGSLVTVSS VL: DIQMTQSPSSLSASVGDRVTITCKASQNIDKYLNWYQQKPGKAPKLLIYNTNNLQTGVPSRFSGSGSGTDFTFTISSLQPEDIATYYCLQHISRPRTFGQGTKVEIKR"
–,–,–,–,–,–,–,–,0.95,34.4,22.4,–,"chimeric 12G6 antibody (antibody, human IgG1, V domains shown, also called 12G6-Chi; 12G6-chimeric) VH: EVQLEESGGGLVQPGGSMKLSCVASGFPFSNYWMNWVRQSPEKGLEWVAQIRLKSNNYATHYAESVKGRFTIARDDSKSSVYLQMNNLRAEDTGIYYCTPIDYWGQGTTLTVSS VL: not shown"
–,–,–,–,–,–,–,–,1.32,30.8,25.9,–,"chimeric 2C3 antibody (antibody, human IgG1, V domains shown, also called 2C3-Chi; 2C3-chimeric) VH: EVKLEESGGGLVQPGGSMKLSCVASGFTFNTYWMNWVRQSPEKGLEWVAQIRLKSNNYATHYAESVKGRFTISRDDSKNSVYLQMNNLRAEDTGIYYCTPVDFWGQGTTLTVSS VL: DIVITQTPLTLSVTIGQPVSISCKSSQSLLYSNGKTYLNWLLQRPGQSPKRLIYLVSKLDSGVPDRFTGSGSGTDFTLKISRVEAEDLGVYYCVQGTHLHTFGAGTKLELK"
–,–,–,–,–,–,–,–,6.05,–,–,EC50 (human CD52 (wildtype) [15]): 5 to 7 µg/mL,"chimeric 9D9 antibody (antibody, human IgG1, V domains shown, also called 9D9-Chi; 9D9-chimeric) VH: EVKLEESGGGLVQPGGSMKLSCAASGFTFSDAWMDWVRQSPEKGLELTAEIRNKAKNHATYYAESVKGRFTISRDDSKSRVYLQMNSLRTEDTGIYYCTTLDSWGQGTSVTVSS VL: not shown"
–,–,–,–,–,–,–,–,–,13.2,7.3,–,"humanized antibody 12G6-SFD1/K11 (antibody, human IgG1, V domains shown, also called 12G6 K11; 12G6 hu) VH: EVQLVESGGGLVQPGGSLRLSCAASGFPFSNYWMNWVRQAPGKGLEWVGQIRLKSNNYATHYAESVKGRFTISRDDSKNSLYLQMNSLKTEDTAVYYCTPIDYWGQGTTVTVSS VL: DIVMTQTPLSLSVTPGQPASISCKSSQSLLYSNGKTYLNWVLQKPGQSPKRLIYLVSKLDSGVPDRFSGSGSGTDFTLKISRVEAEDVGVYYCVQGSHFHTFGQGTKLEIK"
binds,binds,binds,binds,binds,binds,binds,binds,–,13.6,11,binding result [16]: binds; binding result [10]: binds; fold lower EC50 than Campath-1H® (human CD52 (wildtype) [17]): 2 fold,"humanized antibody 2C3-SFD1/K12 (antibody, V domains shown, also called 2C3 K12; 2C3 unmodified) VH: EVQLVESGGGLVQPGGSLRLSCAASGFTFNTYWMNWVRQAPGKGLEWVGQIRLKSNNYATHYAESVKGRFTISRDDSKNSLYLQMNSLKTEDTAVYYCTPVDFWGQGTTVTVSS VL: DIVMTQTPLSLSVTPGQPASISCKSSQSLLYSNGKTYLNWLLQKPGQSPQRLIYLVSKLDSGVPDRFSGSGSGTDFTLKISRVEAEDVGVYYCVQGTHLHTFGQGTRLEIKR"
binds,binds,binds,binds,binds,binds,binds,binds,–,–,10.6,binding result [18]: binds; binding result [16]: binds,"humanized antibody 12G6-SFD1/K12 (antibody, V domains shown, also called 12G6 K12; GLD52) VH: EVQLVESGGGLVQPGGSLRLSCAASGFPFSNYWMNWVRQAPGKGLEWVGQIRLKSNNYATHYAESVKGRFTISRDDSKNSLYLQMNSLKTEDTAVYYCTPIDYWGQGTTVTVSS VL: DIVMTQTPLSLSVTPGQPASISCKSSQSLLYSNGKTYLNWVLQKPGQSPQRLIYLVSKLDSGVPDRFSGSGSGTDFTLKISRVEAEDVGVYYCVQGSHFHTFGQGTKLEIKR"
–,–,–,–,–,–,–,–,2.23,–,–,–,"humanized antibody 4B10-H1/K1 (antibody, V domains shown, also called 4B10-Humanized; 4B10 humanized (H1/K1)) VH: EVQLVESGGGLVQPGGSLRLSCAASGFTFSDYYMSWVRQAPGKGLEWVGFIRNKANGYTTEYSASVKGRFTISRDDSKNSLYLQMNSLKTEDTAVYYCARYIWFDYWGQGTTVTVSS VL: DIVMTQTPLSLSVTPGQPASISCRSSQSLVHTNGNTYLHWYLQKPGQSPQLLIYMVSNRFSGVPDRFSGSGSGTDFTLKISRVEAEDVGVYYCSQSAHVPPLTFGQGTRLEIKR"
